Target: SpyTag-fused glucose dehydrogenase V149C/G190C (Streptococcus pyogenes | Aspergillus flavus)

In the case of CYTc-SpyCatcher, the Imax^app (nA): direct electron transfer current of the complex-immobilized gold electrode on successive glucose addition, chronoamperometry at +400 mV vs. Ag/AgCl; ST-GDH alone hardly gave a response is reported as 55 nA.

Source: article PMC9915066
